Experimental data: the supplement of paper PMC10126150
± gives the standard deviation of the averaged measurements.

Tested on: ATP
Assay: switch fluorescence ratio, 500 uM ATP over buffer (Cy3 cluster intensity, sum of 5 cycles each) (fold (ratio)); higher = stronger signal-on switching upon ATP binding; sequences stand for … in TCGTCGGCAGCGTCAGATGTGTATAAGAGACAGTTTTTTTTTTTTTTTTTTTTTTTTT…TC
Settings: aptamer strand: ATP DNA aptamer (quencher-CACCTGGGGGAGTATTGCGGAGGAAGG + anchor), 100 nM annealed; ATP concentration: 500 uM
Procedure, shortened: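 Values give the fluorescence ratio for each switch-domain sequence, averaged from per-cluster ratios of summed target-cycle to summed buffer-cycle Cy3 intensity. The Cy3-labelled switching-strand clusters sat on a modified Illumina MiSeq flow-cell, were annealed to 100 nM quencher-labelled ATP aptamer, and were imaged in selection buffer, then after 15 min with 500 uM ATP at 22 °C. Five cycles ran with NaOH stripping and re-annealing between them, and clusters outside 100-1000 RFU were excluded.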
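Also: ATP exposure 15 min at 22 °C before imaging.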

Sequence	switch fluorescence ratio
GCATGGCCTA	0.997 ± 0.021
GCATGTATAT	0.978 ± 0.045
GCATGTATGG	0.983 ± 0.044
GCATGTCAGT	0.9762 ± 0.00048
GCATGTCGGG	1.03 ± 0.015
GCATGTCTTG	1 ± 0.028
GCATGTGAAA	1 ± 0.015
GCATTAAGAC	1.23 ± 0.091
GCATTAAGGG	1.01 ± 0.039
GCATTAATCG	1.01 ± 0.025
GCATTCGCCT	1.08 ± 0.035
GCATTGACGG	1.03 ± 0.02
GCATTGTGTA	0.9995 ± 0.003
GCATTTAATG	1 ± 0.05
GCATTTCCCG	1.06 ± 0.091
GCATTTTCAG	0.989 ± 0.021
GCATTTTCAT	0.9766 ± 0.0094
GCCAAATTAG	0.956 ± 0.011
GCCAAATTGG	1.02 ± 0.0071
GCCAAGGGAT	0.9721 ± 0.0082
GCCACAGTAC	3.04 ± 0.098
GCCAGAGAGG	1.005 ± 0.0091
GCCAGAGCGA	1.27 ± 0.0013
GCCAGGGAAA	0.9958 ± 0.0046
GCCAGGTTCC	1.09 ± 0.034

Sequence	switch fluorescence ratio
GCCATATTGG	0.9715 ± 0.0077
GCCATCGATC	1.017 ± 0.0079
GCCATTTGAC	1.02 ± 0.042
GCCCACCACA	1.08 ± 0.028
GCCCACTATT	0.988 ± 0.01
GCCCCCTTGG	2.02 ± 0.026
GCCCCTGTTT	1 ± 0.023
GCCCGCAAGG	1.42 ± 0.015
GCCCGGGGCT	1.028 ± 0.0057
GCCCGTGGAA	0.9893 ± 0.0057
GCCCTATCAT	0.981 ± 0.027
GCCCTCACGT	1.08 ± 0.081
GCCCTGATGG	1 ± 0.035
GCCGAAGTTA	1.12 ± 0.042
GCCGACTCTG	1.04 ± 0.048
GCCGAGAAGT	0.985 ± 0.027
GCCGAGGGGT	1.037 ± 0.008
GCCGATAGGG	0.9975 ± 0.0039
GCCGCATGTG	1.28 ± 0.036
GCCGCCACCT	1.07 ± 0.019
GCCGCGCGCT	1 ± 0.082
GCCGCGGGAA	1 ± 0.051
GCCGCTACCT	1.11 ± 0.079
GCCGGAAAGT	1.05 ± 0.07
GCCGGAAGGC	0.98 ± 0.076

Sequence	switch fluorescence ratio
GCCGGCAAAT	0.995 ± 0.051
GCCGGGATGG	1 ± 0.031
GCCGGGCGGG	0.999 ± 0.038
GCCGGGGACA	1.03 ± 0.053
GCCGGGGACC	0.98 ± 0.031
GCCGGGGAGC	1.02 ± 0.045
GCCGGGGATG	1.007 ± 0.0024
GCCGGGGCGG	1.006 ± 0.0041
GCCGGGTCAG	1.02 ± 0.026
GCCGGTCGTC	1.0461 ± 0.00046
GCCGGTGCTC	0.996 ± 0.021
GCCGGTTTCT	1.01 ± 0.031
GCCGTCGTTG	1 ± 0.019
GCCGTGGGAG	0.986 ± 0.052
GCCGTGTTGG	1 ± 0.032
GCCGTTAACG	0.969 ± 0.028
GCCTAACGCG	1.03 ± 0.018
GCCTAATTTT	0.984 ± 0.021
GCCTAGTATA	0.9714 ± 0.0049
GCCTAGTTGT	0.977 ± 0.028
GCCTCGGGGC	1.02 ± 0.032
GCCTCTGGTC	0.992 ± 0.028
GCCTGATTTA	0.95 ± 0.029
GCCTGTTCGG	0.977 ± 0.024
GCCTGTTTTG	1 ± 0.046

Sequence	switch fluorescence ratio
GCCTTAGTCT	0.962 ± 0.098
GCCTTGTGCG	1.01 ± 0.018
GCCTTTAGGG	1 ± 0.024
GCCTTTGTTT	0.986 ± 0.02
GCCTTTTGCT	0.988 ± 0.018
GCCTTTTTGG	1.02 ± 0.022
GCGAAAAGAT	0.982 ± 0.018
GCGAAAGGCG	0.992 ± 0.022
GCGAACCCAA	1.18 ± 0.048
GCGAACGGTT	1.03 ± 0.021
GCGAATATGC	1.1 ± 0.038
GCGAATGTTT	0.9812 ± 0.0029
GCGAATTAAT	0.979 ± 0.033
GCGAATTGGG	1.02 ± 0.024
GCGACCAGGC	1.14 ± 0.079
GCGACCCTTT	1.118 ± 0.0042
GCGACGAGTA	1.074 ± 0.004
GCGAGAATGT	0.9879 ± 0.0039
GCGAGACCAG	1.64 ± 0.051
GCGAGAGAGT	0.99812 ± 0.0009
GCGAGGAATA	1.2 ± 0.079
GCGAGGGAAC	1.03 ± 0.015
GCGAGGGTTC	0.991 ± 0.029
GCGAGTACGA	1.02 ± 0.032
GCGAGTCATT	0.9845 ± 0.007

Sequence	switch fluorescence ratio
GCGAGTCTCG	1.03 ± 0.044
GCGAGTGTAC	0.983 ± 0.094
GCGAGTGTTT	1.02 ± 0.048
GCGATAGTTG	1.02 ± 0.053
GCGATATAGC	1.03 ± 0.027
GCGATATGTG	1.013 ± 0.0073
GCGATCAATT	1.14 ± 0.051
GCGATCAGAG	1.04 ± 0.037
GCGATGGTGT	1.02 ± 0.008
GCGATTATGG	0.977 ± 0.019
GCGATTCCAG	1.02 ± 0.0065
GCGATTTGGC	1.01 ± 0.056
GCGCAACTGG	1.352 ± 0.0074
GCGCAGAACG	1.07 ± 0.015
GCGCAGCTCG	0.9814 ± 0.0084
GCGCATATTG	1.051 ± 0.0021
GCGCCGGGGG	1.03 ± 0.018
GCGCGCACAC	1.05 ± 0.019
GCGCGCTGGG	0.9646 ± 0.0044
GCGCGGGGGT	1.08 ± 0.032
GCGCGGTGTT	0.988 ± 0.026
GCGCGTGAGC	1.061 ± 0.0011
GCGCTAATGT	1.08 ± 0.013
GCGCTACAGT	1.021 ± 0.0069
GCGCTACGTG	1.01 ± 0.026

Sequence	switch fluorescence ratio
GCGCTCAGAT	1.02 ± 0.028
GCGCTCAGGT	1.09 ± 0.13
GCGCTGCTGT	1.04 ± 0.038
GCGCTGGCGG	1.01 ± 0.024
GCGCTGTTGG	0.9996 ± 0.0035
GCGCTTGGGA	1.03 ± 0.056
GCGCTTGTAC	2.36 ± 0.55
GCGCTTGTTG	0.998 ± 0.013
GCGGAAGGGG	0.988 ± 0.015
GCGGACGGGT	0.969 ± 0.019
GCGGAGACTG	0.962 ± 0.069
GCGGAGGCGT	0.984 ± 0.01
GCGGAGGCTG	0.97393 ± 0.00027
GCGGAGGTTT	0.973 ± 0.034
GCGGAGTTGT	1.02 ± 0.035
GCGGCAAGGG	1.03 ± 0.035
GCGGCACGGC	1.01 ± 0.03
GCGGCAGTCT	1.03 ± 0.012
GCGGCATTGG	1.04 ± 0.053
GCGGCCGGGG	0.999 ± 0.024
GCGGCGGATC	0.987 ± 0.038
GCGGCTTCTC	1.018 ± 0.0072
GCGGGACGTG	0.9857 ± 0.0098
GCGGGACTGT	1.04 ± 0.046
GCGGGAGGCT	0.977 ± 0.028

Sequence	switch fluorescence ratio
GCGGGCCTGT	0.9967 ± 0.0099
GCGGGCGGGG	1.02 ± 0.05
GCGGGCTTGG	0.974 ± 0.015
GCGGGGATGC	1.03 ± 0.075
GCGGGGCAAC	1.01 ± 0.064
GCGGGGCACA	0.987 ± 0.022
GCGGGGCGAA	1.01 ± 0.012
GCGGGGCGTA	0.995 ± 0.016
GCGGGGGCTT	0.98 ± 0.033
GCGGGGGTTC	1.04 ± 0.05
GCGGGGTCAG	0.989 ± 0.025
GCGGTAATCG	1.03 ± 0.032
GCGGTACACG	1.01 ± 0.027
GCGGTAGTCG	1.02 ± 0.052
GCGGTATAC	2.72 ± 0.14
GCGGTCGGTA	1.03 ± 0.038
GCGGTGACGG	1 ± 0.062
GCGGTGGATC	1.04 ± 0.027
GCGGTTCGAG	0.9872 ± 0.0033
GCGGTTGAGG	1.001 ± 0.009
GCGTAAAGTG	0.994 ± 0.038
GCGTAATGGT	1.095 ± 0.0043
GCGTAGTATT	0.9954 ± 0.0085
GCGTATACGG	1.01 ± 0.028
GCGTATATAA	1.04 ± 0.044

Sequence	switch fluorescence ratio
GCGTATGTAT	1.002 ± 0.0068
GCGTCAGGCG	0.971 ± 0.026
GCGTCAGGGG	1.03 ± 0.086
GCGTCAGGGT	0.973 ± 0.027
GCGTCAGTCG	0.949 ± 0.015
GCGTCTGGGG	1.019 ± 0.0046
GCGTCTTCAT	0.979 ± 0.011
GCGTCTTGTG	1.02 ± 0.11
GCGTCTTTGG	0.988 ± 0.026
GCGTGACGGG	0.989 ± 0.037
GCGTGAGCAC	0.9745 ± 0.0089
GCGTGATAAT	1 ± 0.062
GCGTGCATTA	0.984 ± 0.034
GCGTGCCGAC	0.9793 ± 0.0041
GCGTGTATGA	1.02 ± 0.033
GCGTGTATGG	1.03 ± 0.03
GCGTTAAAAG	1.03 ± 0.02
GCGTTAACGG	1.02 ± 0.011
GCGTTACGGG	1.002 ± 0.0089
GCGTTAGGGG	0.979 ± 0.016
GCGTTATACA	0.9979 ± 0.0039
GCGTTATTTG	0.9878 ± 0.0073
GCGTTCATAG	0.995 ± 0.023
GCGTTCGGCA	0.991 ± 0.026
GCGTTCTCGT	0.989 ± 0.018
